Experimental data as given in the supplement of paper PMC7125110.
± gives the standard error. This sample holds only a part of the variants without activity.

B1: glmS ribozyme (parent)
chain: AUAAAAGCGCCAGAACUACAGAAAUGUAGUUGACGAGGAGGAGGUUUAUCGAAUUUUCGGCGGAUGCCUCCAAA

Assays:
Settings in all cases: with glucosamine-6-phosphate
[1] = variants of: B1; test: self-cleavage kobs at 640 uM GlcN6P; higher = faster cleavage; RNA array
Method in brief: (§1)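 Barcoded ribozyme variants on sequenced MiSeq chips were transcribed in situ by E. coli RNA polymerase and followed at 37 °C through a hybridised Cy3 probe. Glucosamine-6-phosphate at 40 μM to 10 mM in HEPES/KCl/Mg(OAc)2 buffer was flowed in, and tiles were imaged over ~14 h. Signals were normalised to baseline and to non-cleaving reference variants, and per-tile medians were fit to one- or two-exponential decays to give kobs. Weighted Michaelis–Menten fits across concentrations gave kcat and KM.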

[2] = variants of: B1; test: self-cleavage kobs at 10000 uM GlcN6P; higher = faster cleavage; RNA array
Method in brief: as §1

[3] = variants of: B1; test: self-cleavage kobs at 2500 uM GlcN6P; higher = faster cleavage; RNA array
Method in brief: as §1

Variant	self-cleavage kobs at 640 uM GlcN6P [1] [s⁻¹]	self-cleavage kobs at 10000 uM GlcN6P [2] [s⁻¹]	self-cleavage kobs at 2500 uM GlcN6P [3] [s⁻¹]
AUAAAAGCGCCAGAACUACAGAAAUGUAGUUUAUGGGGAGGAGGUUUAUCAAAUUUUCGGCGGAUGCCUGCAAA [G32U C34U A36G G51A C70G]	8.6e-05 ± 3.2e-05	–	–
AUAAAAGCGCCAGAACUACAGAAAUGUAGUUCACGAGGAGGAGGUUUAUCUAAUUUUCGGCGGAUGCCUACAAA [G32C G51U C70A]	0.000153 ± 5.2e-05	7.14e-05 ± 3e-05	–
AUAAAAGCGCCAGAACUACAGAAAUGUAGUUCACGAGGAGGAGGUUUAUCGAAUUAUCGGCGGAUGCCUCCAAA [G32C U56A]	3.99e-05 ± 1.8e-05	5.18e-05 ± 7.3e-06	2.05e-05 ± 9.8e-06
AUAAAAGCGCCAGAACUACAGAAAUGUAGUUAACGAGGAGGAGGUUUAUCGAAUUUUCGGCGGAUGCCAGCAAA [G32A U69A C70G]	4.23e-05 ± 1.9e-05	–	–
AUAAAAGCGCCAGAACUACAGAAAUGUAGUUUACGAGGAGGAGGUUUAUCGCAUUUUCGGUGGAUGCCUCCAAA [G32U A52C C61U]	< 1e-05	–	–
AUAAAAGCGCCAGAACUACAGAAAUGUAGUUAACGAGGCGGAGGUUUAUCGAAUUUUCAGCGGAUGACUCCAAA [G32A A39C G59A C67A]	< 1e-05	–	< 1e-05
AUAAAAGCGCCAGAACUACAGAAAUGUAGUGAACGAGGAGGAGGUUUAUCGAACUUUCGGCGGAUGCCUCCAAA [U31G G32A U54C]	0.000129 ± 3.8e-05	–	0.000702 ± 0.00023
AUAAAAGCGCCAGAACUACAGAAAUGUAGUUCACGAGGAGGAGUUUUAUCGAAUUUUCGGCGGCUGCCUCCAAA [G32C G44U A64C]	< 1e-05	< 1e-05	–
AUAAAAGCGCCAGAACUACAGAAAUGUAGUUUACGAGGAGGAGGUUUAUCGAAUUUUAGGCGGAUGCCUGCAAA [G32U C58A C70G]	0.000218 ± 7.9e-05	–	0.000221 ± 5.9e-05
AUAAAAGCGCCAGAACUACAGAAAUGUAGUUUACUAGGAAGAGGUUUAUCGAAUAUUCGGCGGAUGCCUCCAAA [G32U G35U G40A U55A]	< 1e-05	–	–
AUAAAAGCGCCAGAACUACAGAAAUGUAGUGGACGAGGAGGAGGUUUAUCGAAUUUUCGGCGGAAGCCUCCAAA [U31G U65A]	0.000295 ± 0.00011	0.00166 ± 0.00049	–
AUAAAAGCGCCAGAACUACAGAAAUGUAGUUAACGAGGAGGAGUUUUAUCGAAUUUUCGGCGGAUGUCUCCAAA [G32A G44U C67U]	0.000148 ± 2.8e-05	–	0.000244 ± 5.3e-05
AUAAAAGCGCCAGAACUACAGAAAUGUAGUUAACCAGGGGGAGGUUUAUCGAAUUUUCGGCGGAUGCCUCCAAA [G32A G35C A39G]	< 1e-05	–	< 1e-05
AUAAAAGCGCCAGAACUACAGAAAUGUAGUUAACGAGGAGGAGGUUUAUGGAAUUUUCGGCGGAUGCCUCCAAA [G32A C50G]	6.29e-05 ± 2.1e-05	2.9e-05 ± 1.4e-05	–
AUAAAAGCGCCAGAACUACAGAAAUGUAGUGGACGAGGAGGAGAUAUAUCGAAUUUUCGGCCGAUGCCUCCAAA [U31G G44A U46A G62C]	< 1e-05	–	< 1e-05
AUAAAAGCGCCAGAACUACAGAAAUGUAGUUCACAGGGAGGAGGUUUAUCGAAUUUUCGGCGGAUGCCUCCAAA [G32C G35A A36G]	< 1e-05	–	–
AUAAAAGCGCCAGAACUACAGAAAUGUAGUUAACGUGGAGGAGGUUUAUCGAAUUUUCGGCUGAUGCCUGCAAA [G32A A36U G62U C70G]	0.000218 ± 8.5e-05	–	–
AUAAAAGCGCCAGAACUACAGAAAUGUAGUUCGCAAGGAGGAGGUUUAUCGAAUUUUCGGAGGAUGCCUCCAAA [G32C A33G G35A C61A]	< 1e-05	–	–
AUAAAAGCGCCAGAACUACAGAAAUGUAGUUUACGAGGGGGAGGUUUAUCGAAUUUUCGGCGGAUGCCUCCAAA [G32U A39G]	0.0002 ± 3.6e-05	–	0.000485 ± 0.00015
AUAAAAGCGCCAGAACUACAGAAAUGUAGUUAACGACGAGGCGGUUUAUCGAAUUUUCGGCGGAUGCCUCCAAA [G32A G37C A42C]	< 1e-05	–	–
AUAAAAGCGCCAGAACUACAGAAAUGUAGUUUACGUGGAGGAGUUUUGUCGAAUUUUCGGCGGAUGCCUCCAAA [G32U A36U G44U A48G]	< 1e-05	–	< 1e-05
AUAAAAGCGCCAGAACUACAGAAAUGUAGUGGACGAGGAGGAGGUUUAUCAAAUUUUCGGCGGAUGCCUCCAAA [U31G G51A]	< 1e-05	–	–
AUAAAAGCGCCAGAACUACAGAAAUGUAGUUUACUAGGAGGUGGUUUAUCGAAUUAACGGCUGAUGCCUCCAAA [G32U G35U A42U U56A U57A G62U]	< 1e-05	–	< 1e-05

Variant	self-cleavage kobs at 640 uM GlcN6P [1] [s⁻¹]	self-cleavage kobs at 10000 uM GlcN6P [2] [s⁻¹]	self-cleavage kobs at 2500 uM GlcN6P [3] [s⁻¹]
AUAAAAGCGCCAGAACUACAGAAAUGUAGUUAACGAGGGGGAGGUCUAUCGAAUUUUCGGCGGAUGCCUCCAAA [G32A A39G U46C]	0.000174 ± 4.5e-05	–	0.000355 ± 0.00011
AUAAAAGCGCCAGAACUACAGAAAUGUAGUUUAGGAGGAGCAGGUUUAUCGAUUUUUCGGCGGCGGCCUCCAAA [G32U C34G G41C A53U A64C U65G]	< 1e-05	–	< 1e-05
AUAAAAGCGCCAGAACUACAGAAAUGUAGUUAACGAGGAGGAGGUUUAUCGAGUUGUCGGCGGAUGCCUCCAAA [G32A A53G U56G]	7.56e-05 ± 2.8e-05	–	0.000272 ± 8.6e-05
AUAAAAGCGCCAGAACUACAGAAAUGUAGUUUACGAGGAGGAGGUUUAUCAAAUUUACGGCGGAUGCCUCCAAA [G32U G51A U57A]	< 1e-05	–	< 1e-05
AUAAAAGCGCCAGAACUACAGAAAUGUAGUUCACGAGGAGGAGUUUUAUCUAUUUUUGGGCGGAUGCCUCCAAA [G32C G44U G51U A53U C58G]	< 1e-05	–	–
AUAAAAGCGCCAGAACUACAGAAAUGUAGUUUUCUCGGAGGAGGUUUAUUGAAUUUUCGGCGGAUGCCUCCAAA [G32U A33U G35U A36C C50U]	< 1e-05	–	–
AUAAAAGCGCCAGAACUACAGAAAUGUAGUUCACGAGGAGGUGGUUUAUCGAAUUUUCGACGGAUGCCUCCAAA [G32C A42U G60A]	< 1e-05	–	–
AUAAAAGCGCCAGAACUACAGAAAUGUAGUUCACGAGGAGGAGGUUUAUCGAAUUUUCGGCGUAUGCCGCCAAA [G32C G63U U69G]	0.00126 ± 0.00029	–	–
AUAAAAGCGCCAGAACUACAGAAAUGUAGUUCACGAGGAGGAGGUUUAUCGAAUUUUCGGCGGAUGGCGCCAAA [G32C C67G U69G]	< 1e-05	< 1e-05	–
AUAAAAGCGCCAGAACUACAGAAAUGUAGUUAACGACGAGGAGGUUUAUCGAAUUUUCGGUGGAUGUCUCCAAA [G32A G37C C61U C67U]	< 1e-05	–	–
AUAAAAGCGCCAGAACUACAGAAAUGUAGUUCACGAGGAGGAGGUUUAUCGACUUUUCGGCCGAUGCCUCCAAA [G32C A53C G62C]	< 1e-05	–	< 1e-05
AUAAAAGCGCCAGAACUACAGAAAUGUAGUUUUAGCGGAGGAGGUUUAUCGAAUUUUCGGCGGAUGCCUCCAAA [G32U A33U C34A A36C]	< 1e-05	–	< 1e-05
AUAAAAGCGCCAGAACUACAGAAAUGUAGUUCACGAGGAGGAGGUUUAUCCAAUUUUCGGCGGAUGCCUCCAAA [G32C G51C]	< 1e-05	–	< 1e-05
AUAAAAGCGCCAGAACUACAGAAAUGUAGUUAACGAGGAGGAGGUUUAUCUAAUUUUCGGCGGAUGCGUCCAAA [G32A G51U C68G]	0.000156 ± 5.8e-05	–	–
AUAAAAGCGCCAGAACUACAGAAAUGUAGUUAACUAGGAGGAGGUUUAUCGAAUUUACGGCGGAUGCCUCCAAA [G32A G35U U57A]	< 1e-05	–	–
AUAAAAGCGCCAGAACUACAGAAAUGUAGUUUACGAGGAGGAGGUGUAUGGAAUUUUCGGCGGAUGCCUCCAAA [G32U U46G C50G]	0.000215 ± 4.7e-05	–	9.4e-05 ± 3.4e-05
AUAAAAGCGCCAGAACUACAGAAAUGUAGUGGACGAGGAGGAGUUUUAUCGAAUUUUCGGCUGAUGCCUCCAAA [U31G G44U G62U]	< 1e-05	–	< 1e-05
AUAAAAGCGCCAGAACUACAGAAAUGUAGUUUAAGAGGAGGAGGUUUAUCGAAUUUUCGGCGGAUGCCUCCAAA [G32U C34A]	< 1e-05	< 1e-05	< 1e-05
AUAAAAGCGCCAGAACUACAGAAAUGUAGUUCACCAGGAGGAGGUUCAUCGAAUUUUUGGCGGAUGCCUCCAAA [G32C G35C U47C C58U]	< 1e-05	–	–
AUAAAAGCGCCAGAACUACAGAAAUGUAGUUUACGAGGAGUAGGUUUAUCGAAUUUUCGUCGGAUGCAUCCAAA [G32U G41U G60U C68A]	< 1e-05	–	–
AUAAAAGCGCCAGAACUACAGAAAUGUAGUUCACGAGGAGGAGGUUUAUCGAAUUUUCGGCGGAUGCCUGCAAA [G32C C70G]	0.000253 ± 8.1e-05	2.34e-05 ± 9.6e-06	–
AUAAAAGCGCCAGAACUACAGAAAUGUAGUUUAGGAGGAGGAGGUUUAUCGAAUUUUCGGCGGAUGCCGCCAAA [G32U C34G U69G]	8.49e-05 ± 2.2e-05	–	–
AUAAAAGCGCCAGAACUACAGAAAUGUAGUUAACGAUGAGGAGGUUUCUCGAAUUUUCGGCGGAUCCCUCCAAA [G32A G37U A48C G66C]	< 1e-05	–	–
